Reference: paper PMC11496107

B1: LXRα-VP16 (wild-type liver X receptor-α fused to VP16) [human] / Gal4-SRC1 (aa 570-780) [not stated] (parent)
chain 1: MSLWLGAPVPDIPPDSAVELWKPGAQDASSQAQGGSSCILREEARMPHSAGGTAGVGLEAAEPTALLTRAEPPSEPTEIRPQKRKKGPAPKMLGNELCSVCGDKASGFHYNVLSCEGCKGFFRRSVIKGAHYICHSGGHCPMDTYMRRKCQECRLRKCRQAGMREECVLSEEQIRLKKLKRQEEEQAHATSLPPRASSPPQILPQLSPEQLGMIEKLVAAQQQCNRRSFSDRLRVTPWPMAPDPHSREARQQRFAHFTELAIVSVQEIVDFAKQLPGFLQLSREDQIALLKTSAIEVMLLETSRRYNPGSESITFLKDFSYNREDFAKAGLQVEFINPIFEFSRAMNELQLNDAEFALLIAISIFSADRPNVQDQLQVERLQHTYVEALHAYVSIHHPHDRLMFPRMLMKLVSLRTLSSVHSEQVFALRLQDKKLPPLLSEIWDVHE
chain 2: PSRLNIQPAKAESKDNKEIASILNEMIQSDNSSSDGKPLDSGLLHNNDRLSDGDSKYSQTSHKLVQLLTTTAEQQLRHADIDTSCKDVLSCTGTSNSASANSSGGSCPSSHSSLTERHKILHRLLQEGSPSDITTLSVEPDKKDSASTSVSVTGQVQGNSSIKLELDASKKKESKDHQLLRYLLDKDEKDLRSTPNLSLDDVKVKVEKKEQ

Variants of: B1
Experiment: mammalian two-hybrid assay (luciferase reporter, HEK293 cells)
Conditions: with Gal4-SRC1 (aa 570-780); GOF sub-panel; highest T0901317 (T09) dose plotted (rightmost point); 20 h; parent: 100; read off a plot

Variant | percent of parent [% WT]
chain 1 MSLWLGAPVPDIPPDSAVELWKPGAQDASSQAQGGSSCILREEARMPHSAGGTAGVGLEAAEPTALLTRAEPPSEPTEIRPQKRKKGPAPKMLGNELCSVCGDKASGFHYNVLSCEGCKGFFRRSVIKGAHYICHSGGHCPMDTYMRRKCQECRLRKCRQAGMREECVLSEEQIRLKKLKRQEEEQAHATSLPPRASSPPQILPQLSPEQLGMIEKLVAAQQQCNRRSFSDRLRVTPWPMAPDPHSREARQQRFAHFTELAIVSVQEIVDFAKQLPGFLQLSREDQIALLKTSAIEVMLLETSRRYNPGSESITFLKDFSYNREDFAKAGLQVEFINPIFEFSRAVNELQLNDAEFALLIAISIFSADRPNVQDQLQVERLQHTYVEALHAYVSIHHPHDRLMFPRMLMKLVSLRTLSSVHSEQVFALRLQDKKLPPLLSEIWDVHE [chain 1 M346V] | 100

Same assay, conditions: with Gal4-SRC1 (aa 570-780); GOF sub-panel; untreated condition (leftmost point, plotted an order of magnitude below the lowest T09 dose); 20 h; parent: 100; read off a plot

Variant | percent of parent [% WT]
chain 1 MSLWLGAPVPDIPPDSAVELWKPGAQDASSQAQGGSSCILREEARMPHSAGGTAGVGLEAAEPTALLTRAEPPSEPTEIRPQKRKKGPAPKMLGNELCSVCGDKASGFHYNVLSCEGCKGFFRRSVIKGAHYICHSGGHCPMDTYMRRKCQECRLRKCRQAGMREECVLSEEQIRLKKLKRQEEEQAHATSLPPRASSPPQILPQLSPEQLGMIEKLVAAQQQCNRRSFSDRLRVTPWPMAPDPHSREARQQRFAHFTELAIVSVQEIVDFAKQLPGFLQLSREDQIALLKTSAIEVMLLETSRRYNPGSESITFLKDFSYNREDFAKAGLQVEFINPIFEFSRAVNELQLNDAEFALLIAISIFSADRPNVQDQLQVERLQHTYVEALHAYVSIHHPHDRLMFPRMLMKLVSLRTLSSVHSEQVFALRLQDKKLPPLLSEIWDVHE [chain 1 M346V] | 18
